Read-outs that look alike come from different tables or passages of the source.
Experiments:
[1] = biological target: human CTLA-4 (human) (UniProt P16410); assay: flow cytometry, CHO cells expressing huCTLA-4
[2] = biological target: CD28 (human) (UniProt P10747); assay: flow cytometry, Jurkat/IL2 reporter cells (endogenous CD28)
[3] = biological target: PD-L1 (human) (UniProt Q9NZQ7); assay: flow cytometry, CHO cells expressing huPD-L1
Target sequence in this assay (Q9NZQ7 19-290): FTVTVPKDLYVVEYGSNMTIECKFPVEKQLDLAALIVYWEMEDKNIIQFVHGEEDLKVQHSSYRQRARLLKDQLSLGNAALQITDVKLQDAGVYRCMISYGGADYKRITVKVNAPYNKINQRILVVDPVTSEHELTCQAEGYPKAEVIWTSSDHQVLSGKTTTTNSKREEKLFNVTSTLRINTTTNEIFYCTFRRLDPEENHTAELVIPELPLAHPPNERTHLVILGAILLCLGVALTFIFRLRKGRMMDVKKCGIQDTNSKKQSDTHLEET

[4] = biological target: human CTLA-4 (human) (UniProt P16410); assay: flow cytometry, CHO cells expressing huCTLA4
[5] = biological target: CD28 (human) (UniProt P10747); assay: flow cytometry, Jurkat/IL2 reporter cells (CD28)
[6] = biological target: PD-L1 (human) (UniProt Q9NZQ7); assay: flow cytometry, CHO cells expressing huPD-L1; remark: listed apart in the source
Target sequence in this assay (Q9NZQ7 19-290): as above

[7] = biological target: CD28 (human) (UniProt P10747)
[8] = biological target: PD-L1 (human) (UniProt Q9NZQ7)
Target sequence in this assay (Q9NZQ7 19-290): as above

[9] = biological target: CD28 (human) (UniProt P10747); remark: listed apart in the source
[10] = biological target: PD-L1 (human) (UniProt Q9NZQ7); remark: listed apart in the source
Target sequence in this assay (Q9NZQ7 19-290): as above

[11] = biological target: CD28 (human) (UniProt P10747); assay: flow cytometry, Jurkat cells (CD28)
[12] = biological target: PD-L1 (human) (UniProt Q9NZQ7); assay: flow cytometry, CHO cells expressing PD-L1
Target sequence in this assay (Q9NZQ7 19-290): as above

[13] = biological target: human CTLA-4 (human) (UniProt P16410); assay: flow cytometry, CHO cells expressing CTLA4
[14] = biological target: PD-L1 (human) (UniProt Q9NZQ7); assay: flow cytometry, MFI on PD-L1 over MFI on CD28
Target sequence in this assay (Q9NZQ7 19-290): as above

[15] = biological target: CD28 (human) (UniProt P10747); remark: listed apart in the source
[16] = biological target: PD-L1 (human) (UniProt Q9NZQ7); remark: listed apart in the source
Target sequence in this assay (Q9NZQ7 19-290 limits assumed): as the sequence (Q9NZQ7 19-290) above

[17] = biological target: human CTLA-4 (human) (UniProt P16410); assay: flow cytometry, CHO cells stably expressing CTLA4
[18] = biological target: PD-L1 (human) (UniProt Q9NZQ7); assay: flow cytometry, CHO cells stably expressing PD-L1
[19] = biological target: PD-L1 (human) (UniProt Q9NZQ7); assay: flow cytometry, MFI on PD-L1 cells over MFI on CD28 cells
[20] = biological target: CD28 (human) (UniProt P10747); assay: flow cytometry, Jurkat cells (CD28); remark: listed apart in the source

Chain of human CTLA-4 (human) (P16410 36-223): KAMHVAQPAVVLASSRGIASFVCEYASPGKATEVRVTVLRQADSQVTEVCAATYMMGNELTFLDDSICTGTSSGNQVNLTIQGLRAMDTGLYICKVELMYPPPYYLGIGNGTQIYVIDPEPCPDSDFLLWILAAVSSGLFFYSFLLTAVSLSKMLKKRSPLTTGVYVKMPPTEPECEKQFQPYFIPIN

Substance	Jurkat/IL2 reporter RLU at 50 nM, CHO/OKT3 aAPC without PD-L1 [9] [RLU]	IL-2 luciferase reporter, fold increase over WT CD80-IgV-Fc at 5.0 nM [15] [fold]	IL-2 luciferase reporter, fold increase over WT CD80-IgV-Fc at 5.0 nM [16] [fold]	Fold change to WT CD80 [17] [fold]	MFI at 33.3 nM [17] [MFI]	Fold change to WT CD80 [18] [fold]	MFI at 33.3 nM [18] [MFI]	Ratio of PDL1:CD28 [19]	Fold change to WT CD80 [20] [fold]	MFI at 33.3 nM [20] [MFI]	also measured
variant CD80 IgV-Fc E35D/M47L/L85Q (Fc fusion)	–	–	–	–	–	–	–	–	–	–	MFI at 33.3 nM [1]: 12900 MFI; MFI at 33.3 nM [2]: 646 MFI; MFI at 33.3 nM [3]: 33200 MFI; MFI at 33.3 nM [4]: 336000 MFI; MFI at 33.3 nM [5]: 46.3 MFI; MFI at 33.3 nM [6]: 6100 MFI
CD80 E35G/K54E/A71D/L72P IgV-Fc (inert) (Fc fusion)	440	–	–	–	–	–	–	–	–	–	IL-2 release, primary T cells + K562/OKT3/PD-L1, 100 nM [7]: 59; IL-2 release, primary T cells + K562/OKT3/PD-L1, 100 nM [8]: 59; Jurkat/IL2 reporter RLU at 50 nM, CHO/OKT3/PD-L1 aAPC [9]: 476 RLU; Jurkat/IL2 reporter RLU at 50 nM, CHO/OKT3/PD-L1 aAPC [10]: 476 RLU
CD80 E24D/E35D/M47L/V68M/E95V/L97Q IgV-Fc (Fc fusion)	–	–	–	–	–	–	–	–	–	–	Fold change to WT CD80 [11]: 0.5 fold; MFI at 33.3 nM [11]: 15 MFI; Fold change to WT CD80 [12]: 362 fold; MFI at 33.3 nM [12]: 18600 MFI; Fold change to WT CD80 [13]: 8.8 fold; MFI at 33.3 nM [13]: 15500 MFI; Ratio of PDL1:CD28 [14]: 1270
CD80 T13R/Q33R/E35D/M38I/M47L/V68M/L85M IgV-Fc (Fc fusion)	–	–	–	–	–	–	–	–	–	–	Fold change to WT CD80 [11]: 0.5 fold; MFI at 33.3 nM [11]: 14.2 MFI; Fold change to WT CD80 [12]: 21.5 fold; MFI at 33.3 nM [12]: 1110 MFI; Fold change to WT CD80 [13]: 12.6 fold; MFI at 33.3 nM [13]: 22000 MFI; Ratio of PDL1:CD28 [14]: 77.9
variant CD80 IgV-Fc E35D/M47V/T62A/A71G/V83A/Y87H/L97M (Fc fusion)	–	–	–	–	–	–	–	–	–	–	MFI at 33.3 nM [2]: 305 MFI; MFI at 33.3 nM [3]: 77500 MFI; MFI at 33.3 nM [4]: 18100 MFI
CD80 E35D/D46V/L85Q IgV-Fc (inert) (Fc fusion)	720	–	–	–	–	–	–	–	–	–	IL-2 release, primary T cells + K562/OKT3/PD-L1, 100 nM [7]: 1430; IL-2 release, primary T cells + K562/OKT3/PD-L1, 100 nM [8]: 1430
CD80 E35D IgV-Fc (inert) (Fc fusion)	448	–	–	–	–	–	–	–	–	–	IL-2 release, primary T cells + K562/OKT3/PD-L1, 100 nM [7]: 2740; IL-2 release, primary T cells + K562/OKT3/PD-L1, 100 nM [8]: 2740; Jurkat/IL2 reporter RLU at 50 nM, CHO/OKT3/PD-L1 aAPC [9]: 1610 RLU; Jurkat/IL2 reporter RLU at 50 nM, CHO/OKT3/PD-L1 aAPC [10]: 1610 RLU
variant CD80 IgV-Fc H18Y/A26E/V68M/A71G/D90G (Fc fusion)	–	2.5	2.5	13.5	18300	639	27900	10.4	61.1	2680	–
variant CD80 IgV-Fc H18Y/A26E/E35D/M47L/A71G (Fc fusion)	–	2.42	2.42	14.2	19400	387	16900	44.6	8.6	379	–
variant CD80 IgV-Fc Q33L/E35D/M47V/T79A (Fc fusion)	–	–	–	–	–	–	–	–	–	–	MFI at 33.3 nM [3]: 62100 MFI; MFI at 33.3 nM [4]: 28900 MFI
variant CD80 IgV-Fc H18Y/A26E/E35D/M47L/V68M (Fc fusion)	–	2.29	2.29	14.7	20000	566	24700	39.4	14.3	626	–
variant CD80 IgV-Fc Q27H/E35D/M47L/L85Q/R94Q/E95K (Fc fusion)	–	–	–	–	–	–	–	–	–	–	MFI at 33.3 nM [2]: 282 MFI; MFI at 33.3 nM [3]: 36100 MFI
CD80 E35D/M47I IgV-Fc (inert) (Fc fusion)	894	–	–	–	–	–	–	–	–	–	IL-2 release, primary T cells + K562/OKT3/PD-L1, 100 nM [7]: 8310; IL-2 release, primary T cells + K562/OKT3/PD-L1, 100 nM [8]: 8310; Jurkat/IL2 reporter RLU at 50 nM, CHO/OKT3/PD-L1 aAPC [9]: 3780 RLU; Jurkat/IL2 reporter RLU at 50 nM, CHO/OKT3/PD-L1 aAPC [10]: 3780 RLU
variant CD80 IgV-Fc H18Y/A26E/E35D/V68M/A71G (Fc fusion)	–	2.46	2.46	14.3	19400	630	27500	69.7	9	394	–
CD80 H18Y/A26T/E35D/A71D/L85Q IgV-Fc (inert) (Fc fusion)	926	–	–	–	–	–	–	–	–	–	Jurkat/IL2 reporter RLU at 50 nM, CHO/OKT3/PD-L1 aAPC [9]: 1160 RLU; Jurkat/IL2 reporter RLU at 50 nM, CHO/OKT3/PD-L1 aAPC [10]: 1160 RLU
variant CD80 IgV-Fc H18Y/A26E/E35D/M47L/D90G (Fc fusion)	–	2.37	2.37	14.5	19700	291	12700	9.2	31.4	1380	–

Reference: patent publication US20220177587A1, “METHODS AND USES OF VARIANT CD80 FUSION PROTEINS AND RELATED CONSTRUCTS” (Alpine Immune Sciences, Inc., priority 2018, published 2022)
